Data as given in patent US20230174623A1 (MIT, published 2023).

B1: extracellular domain of His-tagged murine LAIR-1 (receptor)
chain: QEGSLPDITIFPNSSLMISQGTFVTVVCSYSDKHDLYNMVRLEKDGSTFMEKSTEPYKTEDEFEIGPVNETITGHYSCIYSKGITWSERSKTLELKVIKENVIQTPAPGPTSDTSWLKTYSIYHHHHHH
notes: The entry includes the C-terminal His tag; Expressed in HEK293 cells; also called mLAIR1-His; mLAIR1
B2: ColG s3a/s3b-Gluc (bacterial collagenase ColG domains s3a/s3b fused to Gaussia luciferase, His-tagged) (other)
chain: PITKEMEPNDDIKEANGPIVEGVTVKGDLNGSDDADTFYFDVKEDGDVTIELPYSGSSNFTWLVYKEGDDQNHIASGIDKNNSKVGTFKSTKGRHYVFIYKHDSASNISYSLNIKGLGNEKLKEKENNDSSDKATVIPNFNTTMQGSLLGDDSRDYYSFEVKEEGEVNIELDKKDEFGVTWTLHPESNINDRITYGQVDGNKVSNKVKLRPGKYYLLVYKYSGSGNYELRVNGGGSGGGSGGGSKPTENNEDFNIVAVASNFATTDLDADRGKLPGKKLPLEVLKEMEANARKAGCTRGCLICLSHIKCTPKMKKFIPGRCHTYEGDKESAQGGIGEAIVDIPEIPGFKDLEPMEQFIAQVDLCVDCTTGCLKGLANVQCSDLLKKWLPQRCATFASKIQGQVDKIKGAGGDGGGSHHHHHH
notes: Expressed in HEK293 cells, 46.1 kDa; also called ColG-Gluc; ColG s3s/s3b-Gluc
B3: His-tagged biotinylated lumican (other)
chain: QYYDYDIPLFMYGQISPNCAPECNCPHSYPTAMYCDDLKLKSVPMVPPGIKYLYLRNNQIDHIDEKAFENVTDLQWLILDHNLLENSKIKGKVFSKLKQLKKLHINYNNLTESVGPLPKSLQDLQLTNNKISKLGSFDGLVNLTFIYLQHNQLKEDAVSASLKGLKSLEYLDLSFNQMSKLPAGLPTSLLTLYLDNNKISNIPDEYFKRFTGLQYLRLSHNELADSGVPGNSFNISSLLELDLSYNKLKSIPTVNENLENYYLEVNELEKFDVKSFCKILGPLSYSKIKHLRLDGNPLTQSSLPPDMYECLRVANEITVNGGGSHHHHHH
modifications: biotinylated (site not stated)
notes: also called Lwt-His-b; Lwt-HIS-b
B4: lumican (purified His-tagged murine lumican, not biotinylated) (other)
chain: B3 chain
notes: also called Lwt
B5: LAIR30.2.K1.B displayed on yeast (Aga2 fusion with c-myc tag) (receptor)
chain: QEGSLPDITIFPNSSLVISQGTFVTVVCSYSDKHDLYNMVRLEKDGSTFMEKSTAPYKTEDEFEIGPVNETITGHYSCIYSKGITWSERSKTLELKVIKENVIQTPAPGPTSDTLWLKTYSIY
notes: not shown: Aga2 protein of yeast, display anchor of the pCTCON2 vector; c-myc tag after the LAIR gene
B6: Lumican-Gluc (His-tagged murine lumican fused to Gaussia luciferase) (other)
chain: QYYDYDIPLFMYGQISPNCAPECNCPHSYPTAMYCDDLKLKSVPMVPPGIKYLYLRNNQIDHIDEKAFENVTDLQWLILDHNLLENSKIKGKVFSKLKQLKKLHINYNNLTESVGPLPKSLQDLQLTNNKISKLGSFDGLVNLTFIYLQHNQLKEDAVSASLKGLKSLEYLDLSFNQMSKLPAGLPTSLLTLYLDNNKISNIPDEYFKRFTGLQYLRLSHNELADSGVPGNSFNISSLLELDLSYNKLKSIPTVNENLENYYLEVNELEKFDVKSFCKILGPLSYSKIKHLRLDGNPLTQSSLPPDMYECLRVANEITVNGGGSGGGSGGGSKPTENNEDFNIVAVASNFATTDLDADRGKLPGKKLPLEVLKEMEANARKAGCTRGCLICLSHIKCTPKMKKFIPGRCHTYEGDKESAQGGIGEAIVDIPEIPGFKDLEPMEQFIAQVDLCVDCTTGCLKGLANVQCSDLLKKWLPQRCATFASKIQGQVDKIKGAGGDGGGSHHHHHH
notes: Expressed in HEK293 cells, 56.6 kDa; also called Lum GLuc

Legend:
[1] = target: T1, collagen type I (collagen I coated 96 well-plates, Gibco); experiment: ELISA on collagen I, anti-His-HRP
T1 construct: also called collagen type 1

[2] = target: T1, collagen type I (collagen I coated 96 …); experiment: competition ELISA on collagen I; 50 nM biotinylated lumican detected with streptavidin-HRP, rmLAIR1 varied
[3] = target: T2, bovine serum albumin (plate blocked with BSA) (bovine, UniProt P02769 25-607); experiment: ELISA on a plate blocked with bovine serum albumin, anti-His-HRP detection
T2 construct: Specificity control surface

[4] = target: T1, collagen type I (collagen I coated 96 …); experiment: ELISA, collagen I coated plate, anti-6xHis-HRP detection
[5] = target: T1, collagen type I (collagen I coated 96 …); experiment: ELISA on collagen I after thawing from frozen, with excipients; data not shown
[6] = target: T3, CRP-XL-biotin (crosslinked collagen related peptide, biotinylated) (O represents hydroxyproline (all O positions); C-terminal amide (NH2); chains crosslinked to lock the helical structure; biotinylated (site not stated)); experiment: kinetic dissociation at 37 C on yeast, MFI of bound CRP-XL-biotin during competition with excess CRP-XL, one-phase exponential decay fit
T3 construct: also called CPP-XL-biotin; soluble collagen peptide mimic

[7] = target: T1, collagen type I (collagen I coated 96 …); experiment: ELISA on collagen I coated plate, anti-6xHis-HRP
[8] = target: collagen type IV (collagen IV coated 96 well-plates, Corning); experiment: ELISA, collagen IV coated plate, anti-6xHis-HRP detection
[9] = target: collagen type IV (collagen IV coated 96 well-plates, Corning); experiment: ELISA on collagen IV coated plate, anti-6xHis-HRP

T1 sequence (P02454 152-1207, chain 1 of 2): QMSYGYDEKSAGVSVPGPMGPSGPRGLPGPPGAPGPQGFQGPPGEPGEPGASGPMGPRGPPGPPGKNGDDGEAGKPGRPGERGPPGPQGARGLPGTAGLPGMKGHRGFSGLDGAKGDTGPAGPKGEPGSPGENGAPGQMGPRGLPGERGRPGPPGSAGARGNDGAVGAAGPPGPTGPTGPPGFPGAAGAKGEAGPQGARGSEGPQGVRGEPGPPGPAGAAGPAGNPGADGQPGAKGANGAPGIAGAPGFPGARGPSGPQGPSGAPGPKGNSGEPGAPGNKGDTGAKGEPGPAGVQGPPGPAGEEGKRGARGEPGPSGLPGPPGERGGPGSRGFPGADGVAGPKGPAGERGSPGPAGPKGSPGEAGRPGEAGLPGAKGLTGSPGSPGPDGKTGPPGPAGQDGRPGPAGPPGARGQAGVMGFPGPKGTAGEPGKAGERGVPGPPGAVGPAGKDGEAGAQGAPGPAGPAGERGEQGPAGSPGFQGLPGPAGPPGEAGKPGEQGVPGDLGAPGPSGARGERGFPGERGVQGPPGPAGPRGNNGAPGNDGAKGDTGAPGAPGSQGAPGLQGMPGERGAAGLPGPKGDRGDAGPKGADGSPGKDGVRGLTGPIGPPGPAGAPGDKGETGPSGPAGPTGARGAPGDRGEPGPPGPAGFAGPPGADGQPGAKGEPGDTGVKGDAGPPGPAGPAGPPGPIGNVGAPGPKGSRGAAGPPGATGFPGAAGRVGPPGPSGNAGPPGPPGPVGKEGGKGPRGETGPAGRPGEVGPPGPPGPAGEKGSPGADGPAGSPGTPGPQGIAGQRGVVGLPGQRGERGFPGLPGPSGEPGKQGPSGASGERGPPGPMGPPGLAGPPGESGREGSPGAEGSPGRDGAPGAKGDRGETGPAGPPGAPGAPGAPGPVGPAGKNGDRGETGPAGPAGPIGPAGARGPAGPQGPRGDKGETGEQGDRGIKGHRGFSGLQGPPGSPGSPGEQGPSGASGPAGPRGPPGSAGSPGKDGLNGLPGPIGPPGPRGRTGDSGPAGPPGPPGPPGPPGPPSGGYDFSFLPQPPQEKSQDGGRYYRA
T1 sequence (P02466 86-1125, chain 2 of 2, further chain): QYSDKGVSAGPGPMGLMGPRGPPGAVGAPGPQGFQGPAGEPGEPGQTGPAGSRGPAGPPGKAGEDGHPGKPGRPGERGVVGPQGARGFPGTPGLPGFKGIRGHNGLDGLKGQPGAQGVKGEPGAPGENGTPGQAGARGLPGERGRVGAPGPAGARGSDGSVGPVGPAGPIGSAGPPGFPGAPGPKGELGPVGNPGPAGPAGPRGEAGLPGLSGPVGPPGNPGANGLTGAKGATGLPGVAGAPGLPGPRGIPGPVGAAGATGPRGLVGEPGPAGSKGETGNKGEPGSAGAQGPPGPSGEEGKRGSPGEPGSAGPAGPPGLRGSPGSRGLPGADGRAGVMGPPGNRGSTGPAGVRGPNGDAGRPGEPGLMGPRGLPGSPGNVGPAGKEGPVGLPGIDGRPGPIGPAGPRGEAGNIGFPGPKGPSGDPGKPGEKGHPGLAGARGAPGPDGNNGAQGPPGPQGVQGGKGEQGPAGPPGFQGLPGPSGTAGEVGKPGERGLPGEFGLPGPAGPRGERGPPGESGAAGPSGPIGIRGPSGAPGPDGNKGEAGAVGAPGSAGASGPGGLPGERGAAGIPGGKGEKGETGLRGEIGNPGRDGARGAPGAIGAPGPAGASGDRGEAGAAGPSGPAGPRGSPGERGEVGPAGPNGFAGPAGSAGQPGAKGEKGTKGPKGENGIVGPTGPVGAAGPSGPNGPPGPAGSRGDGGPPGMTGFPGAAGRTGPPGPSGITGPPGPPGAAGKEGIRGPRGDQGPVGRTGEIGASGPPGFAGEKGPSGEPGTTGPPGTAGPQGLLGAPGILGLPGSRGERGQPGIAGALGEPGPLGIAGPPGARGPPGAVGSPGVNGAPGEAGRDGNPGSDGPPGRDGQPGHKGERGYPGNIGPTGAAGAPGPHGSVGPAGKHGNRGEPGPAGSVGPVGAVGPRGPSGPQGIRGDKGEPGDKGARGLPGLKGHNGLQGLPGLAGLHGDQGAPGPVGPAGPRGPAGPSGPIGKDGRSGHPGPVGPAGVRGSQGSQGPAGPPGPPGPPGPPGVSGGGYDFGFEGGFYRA
T2 sequence (P02769 25-607 limits assumed): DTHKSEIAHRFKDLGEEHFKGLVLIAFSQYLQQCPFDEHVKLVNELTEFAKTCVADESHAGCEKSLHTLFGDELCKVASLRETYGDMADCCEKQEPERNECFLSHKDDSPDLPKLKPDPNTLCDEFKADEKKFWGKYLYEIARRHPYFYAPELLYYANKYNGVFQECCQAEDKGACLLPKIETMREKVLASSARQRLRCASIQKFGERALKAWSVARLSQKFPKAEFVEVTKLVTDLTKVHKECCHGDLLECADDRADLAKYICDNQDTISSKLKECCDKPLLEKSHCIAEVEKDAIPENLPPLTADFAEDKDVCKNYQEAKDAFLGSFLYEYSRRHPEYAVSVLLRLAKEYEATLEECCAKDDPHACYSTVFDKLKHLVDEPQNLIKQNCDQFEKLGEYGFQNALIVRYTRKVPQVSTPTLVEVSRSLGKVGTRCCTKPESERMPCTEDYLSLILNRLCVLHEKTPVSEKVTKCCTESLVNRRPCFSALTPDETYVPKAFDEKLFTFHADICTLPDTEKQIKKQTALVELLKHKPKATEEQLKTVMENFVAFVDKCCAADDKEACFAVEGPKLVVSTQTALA
T3 sequence (peptide, as listed by the source limits assumed): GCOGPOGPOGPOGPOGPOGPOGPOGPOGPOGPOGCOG

Row | Binder | EC50 (read off the curve) [1] [nM] | binding result [3] | Kd [4] [nM] | also measured
1 | B1 | ~20 | no binding | – | IC50 (read off the curve) [2]: ~300 nM
2 | B2 | – | – | 139 | –
3 | B3 | ~20 | no binding | – | –
4 | B4 | – | – | – | fold reduction of binding affinity if lumican was not warmed to 37° C. prior to measurement [5]: ~50 fold
5 | B5 | – | – | – | koff [6]: 4.17e-06 s⁻¹
6 | B6 | – | – | 130 | EC50 (read off the curve) [7]: ~60 nM; Kd [8]: 600 nM; EC50 (read off the curve) [9]: ~60 nM
